Experimental findings from doi:10.1101/483925 are described below.

Holding throughout (assay): EMSA
A general note: In EMSA bound probe runs differently from free probe, usually more slowly.

Data set [1] deals with T1, FD full-length (Arabidopsis thaliana, UniProt Q84JK2 1-285).
T1 sequence: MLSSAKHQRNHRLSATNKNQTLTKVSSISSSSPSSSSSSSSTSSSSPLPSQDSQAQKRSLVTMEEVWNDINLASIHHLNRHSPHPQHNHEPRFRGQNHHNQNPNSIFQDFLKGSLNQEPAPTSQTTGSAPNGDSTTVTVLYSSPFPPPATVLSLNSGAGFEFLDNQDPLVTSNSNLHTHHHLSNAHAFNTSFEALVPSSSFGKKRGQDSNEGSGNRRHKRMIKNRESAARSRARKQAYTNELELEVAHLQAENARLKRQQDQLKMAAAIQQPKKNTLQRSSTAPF

A further data set deals with T2, FD-C (Arabidopsis thaliana, UniProt Q84JK2 203-285).
T2 sequence: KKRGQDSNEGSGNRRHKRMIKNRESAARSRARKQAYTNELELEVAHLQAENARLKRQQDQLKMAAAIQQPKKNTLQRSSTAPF

For data set [2], the target named is T3, FD-C_T282E;14-3-3nu (GRF7) (Arabidopsis thaliana;Arabidopsis …, UniProt Q84JK2;Q96300 203-285;1-265, T282E|).
T3 sequence 1: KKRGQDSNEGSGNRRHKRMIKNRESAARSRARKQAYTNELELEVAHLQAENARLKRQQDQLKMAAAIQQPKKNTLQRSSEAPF
T3 sequence 2: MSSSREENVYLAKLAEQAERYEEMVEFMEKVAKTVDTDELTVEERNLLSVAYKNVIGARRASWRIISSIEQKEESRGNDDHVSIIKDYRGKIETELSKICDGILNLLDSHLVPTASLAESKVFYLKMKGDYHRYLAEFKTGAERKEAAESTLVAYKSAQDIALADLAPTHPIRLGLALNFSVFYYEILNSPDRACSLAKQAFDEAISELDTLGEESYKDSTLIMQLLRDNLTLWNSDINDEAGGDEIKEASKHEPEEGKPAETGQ

For data set [3], the target named is FD-C_T282E;14-3-3nu (GRF7);TFL1 (Arabidopsis thaliana;Arabidopsis …, UniProt Q84JK2;Q96300;P93003 203-285;1-265;1-177, T282E||).
Sequence of FD-C_T282E;14-3-3nu (GRF7);TFL1 (P93003 whole entry, stated change not applied, one chain of several): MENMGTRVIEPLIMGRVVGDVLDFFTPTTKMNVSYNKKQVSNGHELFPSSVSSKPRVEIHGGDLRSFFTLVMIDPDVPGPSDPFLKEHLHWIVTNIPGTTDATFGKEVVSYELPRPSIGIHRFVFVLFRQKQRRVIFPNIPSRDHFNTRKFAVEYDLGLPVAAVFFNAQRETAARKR
For data set [4], the target named is T4, FD-C_T282E;14-3-3nu (GRF7);FT (Arabidopsis thaliana;Arabidopsis …, UniProt Q84JK2;Q96300;Q9SXZ2 203-285;1-265;1-175, T282E||).
T4 sequence (Q9SXZ2 whole entry, stated change not applied, one chain of several): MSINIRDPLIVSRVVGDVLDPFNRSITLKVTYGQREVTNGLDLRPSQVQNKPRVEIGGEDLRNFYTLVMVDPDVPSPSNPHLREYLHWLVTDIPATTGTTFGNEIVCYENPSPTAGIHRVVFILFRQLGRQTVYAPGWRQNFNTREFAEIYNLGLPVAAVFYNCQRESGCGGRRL
For the next data set, the target named is T5, FD-C_T282E (Arabidopsis thaliana, UniProt Q84JK2 203-285, T282E).
T5 sequence: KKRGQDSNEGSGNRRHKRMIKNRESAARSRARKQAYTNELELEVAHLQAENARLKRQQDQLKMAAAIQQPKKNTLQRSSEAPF

In another data set the target is T6, FD T282E full-length (Arabidopsis thaliana, UniProt Q84JK2 1-285, T282E).
T6 sequence: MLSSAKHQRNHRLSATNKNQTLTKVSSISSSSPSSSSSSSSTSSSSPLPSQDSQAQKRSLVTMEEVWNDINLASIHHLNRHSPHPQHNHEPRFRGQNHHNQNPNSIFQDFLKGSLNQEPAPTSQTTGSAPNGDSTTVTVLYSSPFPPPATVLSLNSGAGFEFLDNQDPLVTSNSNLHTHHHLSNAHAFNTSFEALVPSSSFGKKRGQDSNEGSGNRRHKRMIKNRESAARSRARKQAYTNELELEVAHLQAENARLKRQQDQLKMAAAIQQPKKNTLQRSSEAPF

The target of data set [5] is T1, FD full-length. The source holds these as a separate data set.
Data set [6] concerns the target T4, FD-C_T282E;14-3-3nu (GRF7);FT. The source holds these as a separate data set.
For data set [7], the target named is FD-C;14-3-3nu (GRF7);TFL1 (Arabidopsis thaliana;Arabidopsis …, UniProt Q84JK2;Q96300;P93003 203-285;1-265;1-177, ||).
Sequence of FD-C;14-3-3nu (GRF7);TFL1 (P93003 whole entry, one chain of several): as the sequence (P93003 whole entry, stated change not applied, one chain of several) above

Where two headings read alike, the source gives them in different places.

B1: SEP3 G-box CG to GC (CAGCTG) (dsDNA)
DNA 1: CGAGATGTCGACAGCTGTCCAAACTCAT
DNA 2: ATGAGTTTGGACAGCTGTCGACATCTCG
Consider B1, for which the binding result in the data set with FD full-length [1] and with FD-C was “binds” throughout.

B2: SEP3 G-box to C-box (GACGTC) (dsDNA)
DNA 1: CGAGATGTCGAGACGTCTCCAAACTCAT
DNA 2: ATGAGTTTGGAGACGTCTCGACATCTCG
In the case of B2, the binding result with FD full-length [1] and with FD-C was “no binding” in each case.

B3: SEP3 G-box CG to TA (CATATG) (dsDNA)
DNA 1: CGAGATGTCGACATATGTCCAAACTCAT
DNA 2: ATGAGTTTGGACATATGTCGACATCTCG
Turning to B3, the binding result with FD full-length [1] and with FD-C was “no binding” in each case.

B4: AP1 promoter site 2 (dsDNA)
DNA 1: TACCAATGAGAAGTCGACACGCAAATCCTA
DNA 2: TAGGATTTGCGTGTCGACTTCTCATTGGTA
As to B4, the binding result in data set [2], in data set [3] and in data set [4] was “binds” each time.

B5: SEP3 promoter G-box probe (dsDNA)
DNA 1: CGAGATGTCGACACGTGTCCAAACTCAT
DNA 2: ATGAGTTTGGACACGTGTCGACATCTCG
In the case of B5, the binding result (in data set [2]; in the data set with FD-C_T282E; in the data set with FD T282E full-length; with FD full-length [5]; in [3]; in [6]) was “binds” each time. The binding result in data set [7] is recorded as “binds”.
